We go through one molecule from US20050074754A1 (published 2005).

This assay has as its target T1, human NKG2D (human, UniProt P26718 1-216).
T1 construct: whole, on cells; also called hNKG2D; expressed on CHO-K1/hNKG2D-11 cells
T1 sequence (looked up): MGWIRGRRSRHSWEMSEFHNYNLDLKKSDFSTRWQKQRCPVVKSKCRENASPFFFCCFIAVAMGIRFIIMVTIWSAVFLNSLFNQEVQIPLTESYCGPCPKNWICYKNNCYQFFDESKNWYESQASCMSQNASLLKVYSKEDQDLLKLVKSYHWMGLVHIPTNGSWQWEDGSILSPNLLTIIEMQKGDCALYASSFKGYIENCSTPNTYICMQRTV
The assay can be described thus: flow cytometry on CHO-K1/hNKG2D-11 cells, detected with anti-human IgG (Fc)-FITC. How it is done:
The human NKG2D-expressing CHO-K1 cell strain CHO-K1/hNKG2D-11 obtained in Example 7 was washed twice with PBS/1% FBS and suspended in 50 μl PBS/1% FBS containing 10 μl concentrate of the culture supernatant of the CSP2-Fc-expressing COS7 cells obtained in Example 6. The suspension was reacted at 0° C. for 60 minutes for binding them, then washed twice with 200 μl PBS/1% FBS, and suspended in 50 μl PBS/1% FBS containing 1 μl anti-human IgG (Fc)-FITC conjugate (Caltag). The suspension was reacted at 0° C. for 60 minutes for labeling, then washed twice with 200 μl PBS/1% FBS, and suspended again in 600 μl PBS/1% FBS. When the suspension was analyzed with a flow cytometer FACS Vantage (Becton Dickinson), cells with high intensity of FITC fluorescence were recognized, and the evident binding of CSP2-Fc protein to human NKG2D expressed on the surface of CHO-K1 cells was observed (FIG. 2A).
(In general: In flow cytometry, cells or beads pass a laser one at a time.)

B1: CSP2-Fc protein (fusion protein of CSP2 protein with human IgG Fc region) (Fc fusion)
chain: HSLCFNFTIKSLSRPGQPWCEAQVFLNKNLFLQYNSDNNMVKPLGLLGKKVNATSTWGELTQTLGEVGRDLRMLLCDIKPQIKTSDPSTLQVEMFCQREAERCTGASWQFAINGEKSLLFDAMNMTWTVINHEASKIKETWKKDRGLEKYFRKLSKGDCDHWLREFLGHWEAMPEPTVSPVNASDIHWSSS
notes: Used as a 100-fold concentrate of the culture supernatant of transfected COS7 cells, not purified; The construct encodes CSP2 residues 1-221; not shown: human IgG Fc region, amplified by PCR from human spleen IgG Fc cDNA (Clontech); Subclass, limits and the residues encode
Consider B1, for which the binding result is given as “binds”.
